From US20240116985A1 (published 2024)
Starred links: 1 amine or outer side, 2 acyl side, 3 side chain; linkers in the order of their positions; H or OH if unused. Positions of bridges follow the written chain, without caps; N, C: chain ends. Non-standard residues stand in square brackets, D forms with d. Primed or numbered codes have the meaning given here. PyrS2″ = (S)-3-amino-1-((pent-4-en-1-yloxy)carbonyl)pyrrolidine-3-carboxylic acid (stapling residue), C=CCCCOC(=O)N1CC[C@@](N[*:1])(C(=O)[*:2])C1; RdN″ = (R)-4-(((allyloxy)carbonyl)(methyl)amino)-2-amino-2-methylbutanoic acid (stapling residue), C=CCOC(=O)N(C)CC[C@@](C)(N[*:1])C(=O)[*:2]; ReN = (R)-5-(((allyloxy)carbonyl)(methyl)amino)-2-amino-2-methylpentanoic acid, stapling residue, C=CCOC(=O)N(C)CCC[C@@](C)(N[*:1])C(=O)[*:2]; PyrS(3) = (S)-1-((allyloxy)carbonyl)-3-aminopyrrolidine-3-carboxylic acid, stapling residue, C=CCOC(=O)N1CC[C@@](N[*:1])(C(=O)[*:2])C1; PyrS″ = (S)-1-((allyloxy)carbonyl)-3-aminopyrrolidine-3-carboxylic acid (stapling residue), C=CCOC(=O)N1CC[C@@](N[*:1])(C(=O)[*:2])C1; SeN = (S)-5-(((allyloxy)carbonyl)(methyl)amino)-2-amino-2-methylpentanoic acid, C=CCOC(=O)N(C)CCC[C@](C)(N[*:1])C(=O)[*:2]; RdN = (R)-4-(((allyloxy)carbonyl)(methyl)amino)-2-amino-2-methylbutanoic acid, C=CCOC(=O)N(C)CC[C@@](C)(N[*:1])C(=O)[*:2]; PyrS = (S)-1-((allyloxy)carbonyl)-3-aminopyrrolidine-3-carboxylic acid, C=CCOC(=O)N1CC[C@@](N[*:1])(C(=O)[*:2])C1; B5(3) = 2,2-bis(4-pentenyl)glycine (stitching residue), C=CCCCC(CCCC=C)(N[*:1])C(=O)[*:2]; R6 = (R)-2-amino-2-methyloct-7-enoic acid, C=CCCCC[C@@](C)(N[*:1])C(=O)[*:2]; Phe(4-COOH) = N[C@@H](Cc1ccc(C(=O)O)cc1)C(=O)O; S7 = C[C@@](CCCCCC=[*:3])(N[*:1])C(=O)[*:2]; Bip = N[C@@H](Cc1ccc(-c2ccccc2)cc1)C(=O)O; Phe(2-Cl) = N[C@@H](Cc1ccccc1Cl)C(=O)O; Bta = N[C@@H](Cc1csc2ccccc12)C(=O)O; αAllylPro = C=CC[C@@]1(C(=O)O)CCCN1; tBuAla = CC(C)(C)C[C@H](N)C(=O)O; 3Pal = N[C@@H](Cc1cccnc1)C(=O)O; R8 = C=CCCCCCC[C@@](C)(N)C(=O)O; Aad = N[C@@H](CCCC(=O)O)C(=O)O; Cha = N[C@@H](CC1CCCCC1)C(=O)O; Thr(ol) = C[C@@H](O)[C@H](N)CO; R5 = C=CCCC[C@@](C)(N)C(=O)O; hLeu = CC(C)CC[C@H](N)C(=O)O; S5 = C=CCCC[C@](C)(N)C(=O)O; Nle = CCCC[C@H](N)C(=O)O

B1: I-5 (peptide)
peptide: Ac-FDA[R8]D[Aad]AAFV[PyrS(3)]FWQ-NH2
modifications: staple 4-11; also: earlier-eluting HPLC isomer, E/Z not given here
notes: Stapled peptide composition
B2: I-26 (peptide)
peptide: Ac-FDA[R6]DDAAFV[SeN]FWQ-NH2
modifications: staple 4-11
notes: Stapled peptide composition
B3: I-1082 (peptide)
peptide: Ac-[αAllylPro]D[tBuAla][B5(3)]DDAAFN[PyrS2″][Phe(2-Cl)][Bta][Thr(ol)]
modifications: staple 1-4, 4-11
B4: I-6 (peptide)
peptide: Ac-FDA[R8]D[Aad]AAFV[PyrS]FWQ-NH2
modifications: staple 4-11
notes: Stapled peptide composition
B5: I-1 (peptide)
peptide: Ac-FDA[RdN″]DDAAFV[S7]FWQ-NH2
modifications: staple 4-11
notes: Stapled peptide composition
B6: I-22 (peptide)
peptide: Ac-FDA[R8]DDAEFV[PyrS]FWQ-NH2
modifications: staple 4-11; also: later-eluting HPLC isomer peak
notes: Stapled peptide composition
B7: I-19 (peptide)
peptide: Ac-FDA[R8]DDADFV[PyrS]FWQ-NH2
modifications: staple 4-11; not fully specified; printed as Ac-Phe-Asp-Ala-R8-Asp-Asp-Ala-Asp-Phe-Val-PyrS-Phe-Trp-Gln-NH2
notes: Stapled peptide composition
B8: I-20 (peptide)
peptide: Ac-FDA[R8]DDADFV[PyrS]FWQ-NH2
modifications: staple 4-11; not fully specified; printed as Ac-Phe-Asp-Ala-R8-Asp-Asp-Ala-Asp-Phe-Val-PyrS-Phe-Trp-Gln-NH2
notes: Stapled peptide composition
B9: I-4 (peptide)
peptide: Ac-FDA[R8]DEAAFV[PyrS″]FWQ-NH2
modifications: staple 4-11; not fully specified; printed as Ac-Phe-Asp-Ala-R8-Asp-Glu-Ala-Ala-Phe-Val-PyrS-Phe-Trp-Gln-NH2
notes: Stapled peptide composition
B10: I-21 (peptide)
peptide: Ac-FDA[R8]DDAEFV[PyrS]FWQ-NH2
modifications: staple 4-11; not fully specified; printed as Ac-Phe-Asp-Ala-R8-Asp-Asp-Ala-Glu-Phe-Val-PyrS-Phe-Trp-Gln-NH2
notes: Stapled peptide composition
B11: I-3 (peptide)
peptide: Ac-FDA[R8]DEAAFV[PyrS″]FWQ-NH2
modifications: staple 4-11
notes: Stapled peptide composition
B12: I-18 (peptide)
peptide: Ac-FDA[R8]D[hLeu]AAFV[PyrS]FWQ-NH2
modifications: staple 4-11; not fully specified; printed as Ac-Phe-Asp-Ala-R8-Asp-hLeu-Ala-Ala-Phe-Val-PyrS-Phe-Trp-Gln-NH2
notes: Stapled peptide composition
B13: I-9 (peptide)
peptide: Ac-FDA[R8]D[3Pal]AAFV[PyrS″]FWQ-NH2
modifications: staple 4-11
notes: Stapled peptide composition
B14: I-2 (peptide)
peptide: Ac-FDA[RdN]DDAAFV[S7]FWQ-NH2
modifications: staple 4-11; also: later-eluting isomer of same sequence as I-1
notes: Stapled peptide composition
B15: I-27 (peptide)
peptide: Ac-FDA[ReN]DDAAFV[S5]FWQ-NH2
modifications: staple 4-11
notes: Stapled peptide composition
B16: I-25 (peptide)
peptide: Ac-FDA[R5]DDAAFV[SeN]FWQ-NH2
modifications: staple 4-11
notes: Stapled peptide composition
B17: I-13 (peptide)
peptide: Ac-FDA[R8]D[Nle]AAFV[PyrS]FWQ-NH2
modifications: staple 4-11
notes: Stapled peptide composition
B18: I-17 (peptide)
peptide: Ac-FDA[R8]D[hLeu]AAFV[PyrS]FWQ-NH2
modifications: staple 4-11
notes: Stapled peptide composition
B19: I-11 (peptide)
peptide: Ac-FDA[R8]D[Bip]AAFV[PyrS″]FWQ-NH2
modifications: staple 4-11; not fully specified; printed as Ac-Phe-Asp-Ala-R8-Asp-Bip-Ala-Ala-Phe-Val-PyrS-Phe-Trp-Gln-NH2
notes: Stapled peptide composition
B20: I-15 (peptide)
peptide: Ac-FDA[R8]D[Cha]AAFV[PyrS]FWQ-NH2
modifications: staple 4-11; not fully specified; printed as Ac-Phe-Asp-Ala-R8-Asp-Cha-Ala-Ala-Phe-Val-PyrS-Phe-Trp-Gln-NH2
notes: Stapled peptide composition
B21: I-16 (peptide)
peptide: Ac-FDA[R8]D[Cha]AAFV[PyrS]FWQ-NH2
modifications: staple 4-11; not fully specified; printed as Ac-Phe-Asp-Ala-R8-Asp-Cha-Ala-Ala-Phe-Val-PyrS-Phe-Trp-Gln-NH2
notes: Stapled peptide composition
B22: I-7 (peptide)
peptide: Ac-FDA[R8]D[Phe(4-COOH)]AAFV[PyrS″]FWQ-NH2
modifications: staple 4-11
notes: Stapled peptide composition
B23: I-14 (peptide)
peptide: Ac-FDA[R8]D[Nle]AAFV[PyrS]FWQ-NH2
modifications: staple 4-11; not fully specified; printed as Ac-Phe-Asp-Ala-R8-Asp-nLeu-Ala-Ala-Phe-Val-PyrS-Phe-Trp-Gln-NH2
notes: Stapled peptide composition
B24: I-24 (peptide)
peptide: Ac-FDA[R8]DDA[Aad]FV[PyrS]FWQ-NH2
modifications: staple 4-11; not fully specified; printed as Ac-Phe-Asp-Ala-R8-Asp-Asp-Ala-Aad-Phe-Val-PyrS-Phe-Trp-Gln-NH2
notes: Stapled peptide composition
B25: I-12 (peptide)
peptide: Ac-FDA[R8]D[Bip]AAFV[PyrS(3)]FWQ-NH2
modifications: staple 4-11
notes: Stapled peptide composition
B26: I-10 (peptide)
peptide: Ac-FDA[R8]D[3Pal]AAFV[PyrS″]FWQ-NH2
modifications: staple 4-11
notes: Stapled peptide composition
B27: I-8 (peptide)
peptide: Ac-FDA[R8]D[Phe(4-COOH)]AAFV[PyrS″]FWQ-NH2
modifications: staple 4-11
notes: Stapled peptide composition
B28: I-23 (peptide)
peptide: Ac-FDA[R8]DDA[Aad]FV[PyrS″]FWQ-NH2
modifications: staple 4-11; also: earlier-eluting HPLC peak
notes: Stapled peptide composition

Columns and labels:
[1] = biological target: T1, full-length beta-Catenin (Uniprot ID P35222) (Homo sapiens (Human), UniProt P35222 2-781); experiment: AlphaScreen competition vs biotin-TCF4(10-53) on full-length beta-catenin
T1 construct: The assay text says 'full-length'; also called B-Catenin; bCat
T1 sequence: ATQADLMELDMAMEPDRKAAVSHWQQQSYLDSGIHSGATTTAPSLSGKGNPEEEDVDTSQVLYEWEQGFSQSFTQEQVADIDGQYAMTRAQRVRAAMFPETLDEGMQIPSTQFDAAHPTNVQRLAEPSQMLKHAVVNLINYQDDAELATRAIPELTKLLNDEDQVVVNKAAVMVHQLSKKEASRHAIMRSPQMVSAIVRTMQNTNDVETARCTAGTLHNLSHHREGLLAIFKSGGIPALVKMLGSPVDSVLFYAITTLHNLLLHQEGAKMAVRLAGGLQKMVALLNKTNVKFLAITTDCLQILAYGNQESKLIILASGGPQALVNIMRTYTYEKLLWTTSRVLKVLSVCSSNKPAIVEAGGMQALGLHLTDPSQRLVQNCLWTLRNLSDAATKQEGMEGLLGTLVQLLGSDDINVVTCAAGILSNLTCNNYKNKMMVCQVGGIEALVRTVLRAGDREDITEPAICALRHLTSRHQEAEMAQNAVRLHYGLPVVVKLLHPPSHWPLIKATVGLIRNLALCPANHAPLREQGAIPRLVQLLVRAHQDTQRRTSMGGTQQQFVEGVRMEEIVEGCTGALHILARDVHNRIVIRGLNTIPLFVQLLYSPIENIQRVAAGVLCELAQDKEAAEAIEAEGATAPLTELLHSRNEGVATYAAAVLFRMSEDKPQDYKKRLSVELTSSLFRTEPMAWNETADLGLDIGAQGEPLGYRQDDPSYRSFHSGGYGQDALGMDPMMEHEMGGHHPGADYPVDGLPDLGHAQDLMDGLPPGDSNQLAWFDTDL
Description: Equal volume of the titrated peptide was added to the plate and incubated for 15 minutes at 20° C. Then 4 uL of donor and 4 uL acceptor beads at 10 ug/mL were added to the plate, for a 16 uL reaction pool and protected from light for 60 minutes at 20° C. prior to read. Reads were performed on a CLARIOstar plate reader (BMG Labtech) in duplicate, and data were fitted to a 1:1 binding model with hill slope using an in-house script. All provided concentrations are final concentrations.

beta-catenin = biological target: T2, beta-catenin (Homo sapiens (Human), UniProt P35222 2-781); experiment: cell-based or functional assay
T2 sequence: T1 sequence

Binder | EC50 [1] [µM] | also measured
B1 | ≥ 10 | 
B2 | 8.11 | 
B3 |  | DLD1 TCF c2 BrightGlo % Inhibition (TCF/LEF luciferase reporter; 0.625 uM by plate map, replicate 1) (beta-catenin): 14.1%; DLD1 TCF c2 BrightGlo % Inhibition (TCF/LEF luciferase reporter; 0.625 uM by plate map, replicate 2) (beta-catenin): 17.4%; DLD1 TCF c2 BrightGlo % Inhibition (TCF/LEF luciferase reporter; 0.625 uM by plate map, replicate 3) (beta-catenin): 20.3%; DLD1 TCF c2 BrightGlo % Inhibition (TCF/LEF luciferase reporter; 1.25 uM by plate map, replicate 1) (beta-catenin): 14%; DLD1 TCF c2 BrightGlo % Inhibition (TCF/LEF luciferase reporter; 1.25 uM by plate map, replicate 2) (beta-catenin): 21.5%; DLD1 TCF c2 BrightGlo % Inhibition (TCF/LEF luciferase reporter; 1.25 uM by plate map, replicate 3) (beta-catenin): 24%; DLD1 TCF c2 BrightGlo % Inhibition (TCF/LEF luciferase reporter; 2.5 uM by plate map, replicate 1) (beta-catenin): 17.3%; DLD1 TCF c2 BrightGlo % Inhibition (TCF/LEF luciferase reporter; 2.5 uM by plate map, replicate 2) (beta-catenin): 36.1%; DLD1 TCF c2 BrightGlo % Inhibition (TCF/LEF luciferase reporter; 2.5 uM by plate map, replicate 3) (beta-catenin): 37.9%; DLD1 TCF c2 BrightGlo % Inhibition (TCF/LEF luciferase reporter; 5 uM by plate map, replicate 1) (beta-catenin): 38.5%; DLD1 TCF c2 BrightGlo % Inhibition (TCF/LEF luciferase reporter; 5 uM by plate map, replicate 2) (beta-catenin): 56.2%; DLD1 TCF c2 BrightGlo % Inhibition (TCF/LEF luciferase reporter; 5 uM by plate map, replicate 3) (beta-catenin): 62%; DLD1 TCF c2 BrightGlo % Inhibition (TCF/LEF luciferase reporter; 10 uM by plate map, replicate 1) (beta-catenin): 63.9%; DLD1 TCF c2 BrightGlo % Inhibition (TCF/LEF luciferase reporter; 10 uM by plate map, replicate 2) (beta-catenin): 71%; DLD1 TCF c2 BrightGlo % Inhibition (TCF/LEF luciferase reporter; 10 uM by plate map, replicate 3) (beta-catenin): 75%; DLD1 TCF c2 BrightGlo % Inhibition (TCF/LEF luciferase reporter; 20 uM by plate map, replicate 1) (beta-catenin): 76.5%; DLD1 TCF c2 BrightGlo % Inhibition (TCF/LEF luciferase reporter; 20 uM by plate map, replicate 2) (beta-catenin): 77.1%; DLD1 TCF c2 BrightGlo % Inhibition (TCF/LEF luciferase reporter; 20 uM by plate map, replicate 3) (beta-catenin): 79.9%
B4 | 6.5 | 
B5 | ≥ 10 | 
B6 | ≥ 10 | 
B7 | ≥ 10 | 
B8 | ≥ 10 | 
B9 | 5.89 | 
B10 | ≥ 10 | 
B11 | 9.13 | 
B12 | ≥ 10 | 
B13 | ≥ 10 | 
B14 | ≥ 10 | 
B15 | 6.82 | 
B16 | 7.22 | 
B17 | ≥ 10 | 
B18 | ≥ 10 | 
B19 | ≥ 10 | 
B20 | ≥ 10 | 
B21 | ≥ 10 | 
B22 | ≥ 10 | 
B23 | 9.76 | 
B24 | 8.57 | 
B25 | ≥ 10 | 
B26 | ≥ 10 | 
B27 | ≥ 10 | 
B28 | 9.22 | 
